Measurements: US20100015126A1, “Methods of Binding of Cross-Beta Structures By Chaperones” (priority 2006, published 2010)
Values belong to the substance of their own block, whether it stands above or below them.

How the values were obtained:
BiP-Sepharose [1] = target: T1, BiP-Sepharose (Homo sapiens, UniProt P11021); assay: BiP-Sepharose extraction of proteins from patient plasma, serum, synovial fluid and mass-spectrometric identification; assay type: binding; conditions: for Specific binding to BiP-Sepharose from control serum: compared to RA patient III
T1 construct: The human BiP gene except the signal peptide encoding region was obtained from Geneart (Germany); linker […]; made in house; host or cells: HEK 293E cells, transient transfection, PABC674 vector; secreted into the medium
Protocol: BiP was coated on CNBr-Sepharose (GE-Healthcare, Amersham Biosciences). Immobilization of BiP was performed essentially as described elsewhere in this application for NHS-Sepharose. CNBr-matrix was dissolved at 200 mg/ml in 1 mM HCl and treated the same as the NHS-matrix, except for an additional 5 minutes activation step in 1 mM HCl on a roller device before washing in this buffer. BiP was diluted in immobilization buffer (50 mM NaCl and 40 mM NaHCO3) to a concentration of 820 μg/ml. A total volume of 2 ml BiP solution (1640 μg BiP) was incubated with 360 mg beads. Negative control matrix was exposed to immobilization buffer, only. After overnight immobilization matrix was blocked with Tris and washed.
(§1) Six samples were incubated with the BiP-Sepharose, IgIV-Sepharose and the control-Sepharose: Normal pooled plasma, plasma of a patient I or of a patient II, with AL amyloidosis, serum of a patient III with RA (Rheumatoid Factor (RF) titer 682), control serum and synovial fluid of a patient IV with RA (RF titer 23). All samples were diluted 20× in HBS and applied to 200 μl beads in two volumes of 500 μl. One volume was incubated for 4 h at RT and supernatant was discarded after centrifugation (2 minutes at 1400 rpm). Subsequently, the second volume was applied to the same matrix and incubated overnight on a roller device at 4° C. […] To collect the eluates, the matrices were centrifuged and the two eluates were pooled for each sample.
(§2) Protein digests were desalted as described (Rappsilber et al., 2003), vacuum dried and dissolved in 2.5% formic acid.
(§3) For analysis of peptide mixtures, an Agilent 1100 HPLC system (Agilent Technologies) connected to a Thermo Finnigan LTQ-MS (Thermo Electron, Bremen, Germany) was used. Protein digests were injected on a trap column (Reprosil C18 RP (Dr Maisch, Germany), 20 mm×100 μm I.D.) at 5 μl/minute. Subsequently, the peptides were transferred with a split-reduced flow rate of 100 nL/minute solvent A (0.1 M acetic acid) on the analytical column (Reprosil C18 RP, 20 cm×50 μm I.D.). […] The column effluent was directly introduced into the ESI source of the mass spectrometer via a butt-connected nano-ESI emitter (New Objectives, Woburn, Mass.). The mass spectrometer was operated in the positive ion mode and parent ions were selected for fragmentation in data-dependent mode.
(§4) After mass spectrometric measurements, peak lists were generated using BioWorks software (Thermo Electron, Bremen, Germany). Protein identification was performed using Mascot software (www.matrixscience.com) by searching the IPIhuman database (version 3.24, downloaded from ftp://ftp.ebi.ac.uk/pub/databases/IPI/current) using the following settings: fully tryptic peptides, peptide tolerance 0.8 Da, MS/MS tolerance 0.9 Da, 1 missed cleavage allowed, carbamidomethyl (Cys) and oxidation (Met) as fixed and variable modification, respectively. The Scaffold software package (www.proteomesoftware.com) was used to parse the data and to filter peptides at a confidence level of 95%, allowing only protein identification with at least 2 peptides identified.

BiP-Sepharose [2] = target: T1, BiP-Sepharose; assay: Experiment 2: BiP-Sepharose extraction from six synovial fluid samples of RA patients and mass spectrometry; assay type: binding; conditions: BiP-Sepharose eluate, synovial fluid of RA patient
Protocol: as §1, §2, §3, §4
Those samples are listed below: • 1. […] One difference when compared to the protocol described above is that now with the twelve samples, elution buffer comprised 1 M NaCl. Again, a misfolded protein or a protein binding to misfolded protein is identified uniquely in the synovial fluid when no or a relatively very low number of fragments are detected in eluates of control-Sepharose.

[3] = Sample B2: eluate of BiP-Sepharose contacted with AL amyloidosis patient I plasma
[4] = Sample B3: eluate of BiP-Sepharose contacted with AL amyloidosis patient II plasma
[5] = Sample B4: eluate of BiP-Sepharose contacted with RA patient III serum
[6] = compared to AL amyloidosis patient II
[7] = Sample B6: eluate of BiP-Sepharose contacted with RA patient IV synovial fluid
[8] = compared to AL amyloidosis patient I

T1 sequence (P11021 19-654): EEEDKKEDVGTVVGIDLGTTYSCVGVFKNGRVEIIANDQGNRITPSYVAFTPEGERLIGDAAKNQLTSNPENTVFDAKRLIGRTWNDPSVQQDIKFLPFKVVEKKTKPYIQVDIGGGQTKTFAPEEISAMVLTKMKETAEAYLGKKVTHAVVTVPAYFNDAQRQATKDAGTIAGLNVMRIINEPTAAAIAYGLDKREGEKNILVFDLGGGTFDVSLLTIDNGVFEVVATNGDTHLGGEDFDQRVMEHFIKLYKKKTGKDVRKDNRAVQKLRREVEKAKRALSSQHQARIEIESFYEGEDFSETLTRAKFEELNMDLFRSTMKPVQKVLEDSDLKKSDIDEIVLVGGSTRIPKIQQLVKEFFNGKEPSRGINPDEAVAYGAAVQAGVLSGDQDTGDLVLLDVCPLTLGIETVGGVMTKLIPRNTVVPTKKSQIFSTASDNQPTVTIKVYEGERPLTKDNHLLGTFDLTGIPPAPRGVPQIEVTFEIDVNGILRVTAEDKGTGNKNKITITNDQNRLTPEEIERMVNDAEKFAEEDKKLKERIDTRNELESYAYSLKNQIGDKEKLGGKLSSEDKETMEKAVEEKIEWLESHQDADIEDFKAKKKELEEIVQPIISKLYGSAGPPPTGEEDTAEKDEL

Substance: Single-chain Fv (Fragment) [IPI00470652]
- # of peptides in sample A# (BiP-Sepharose [1]; [4]): 2

Substance: fibronectin 1 isoform 4 preproprotein
- # of unique peptides (BiP-Sepharose [2]; Sample 1B): 10
- # of unique peptides (BiP-Sepharose [2]; Sample 2B): 2
- # of unique peptides (BiP-Sepharose [2]; Sample 5B): 2

Substance: complement factor H isoform I [IPI00029739]
- Specific binding to BiP-Sepharose from normal pooled plasma (BiP-Sepharose [1]; [6]): specifically bound

Substance: Vitronectin precursor (Serum-spreading factor/S-protein/V75 [Contains: Vitronectin V65 subunit; Vitronectin V10 subunit; Somatomedin B])/Vitronectin [IPI00298971]
- # of peptides in sample A# (BiP-Sepharose [1]; [5]): 4

Substance: GCN1 general control of amino-acid synthesis 1-like 1 (yeast)/GCN1-like protein 1 (HsGCN1) [IPI00001159]
- # of peptides in sample A# (BiP-Sepharose [1]; [5]): 2

Substance: Isoform Long of Antigen KI-67/Antigen KI-67 [IPI00004233]
- # of peptides in sample A# (BiP-Sepharose [1]; [3]): 1

Substance: Hypothetical protein [IPI00784983]
- # of peptides in sample A# (BiP-Sepharose [1]; [4]): 2
- # of peptides in sample A# (BiP-Sepharose [1]; [7]): 1

Substance: clusterin isoform 1 [IPI00291262]
- Specific binding to BiP-Sepharose from normal pooled plasma (BiP-Sepharose [1]; [6]): specifically bound
- Specific binding to BiP-Sepharose from control serum (BiP-Sepharose [1]): specifically bound

Substance: Hypothetical protein/Ig kappa chain V-II region RPMI 6410 precursor [IPI00550731]
- # of peptides in sample A# (BiP-Sepharose [1]; [4]): 1

Substance: Dynein heavy chain domain 3/KIAA1503 protein (Fragment) [IPI00783464]
- # of peptides in sample A# (BiP-Sepharose [1]; [4]): 2

Substance: Myosin-reactive immunoglobulin light chain variable region/Ig kappa chain V-III region VH precursor (Fragment) [IPI00024138]
- # of peptides in sample A# (BiP-Sepharose [1]; [5]): 3

Substance: Hypothetical protein/immunoglobulin lambda variable 4-3 [IPI00382938]
- # of peptides in sample A# (BiP-Sepharose [1]; [3]): 1
- # of peptides in sample A# (BiP-Sepharose [1]; [4]): 2

Substance: Hypothetical protein/Heat shock 70 kDa protein 5 (glucose-regulated protein, 78 kDa = GRP78 = BiP = HSPA5) [IPI00003362]
- # of peptides in sample A# (BiP-Sepharose [1]; [7]): 31

Substance: Fc fragment of IgG binding protein (IgGFc-binding protein precursor/FcgammaBP/Fcgamma-binding protein antigen) [IPI00242956]
- # of peptides in sample A# (BiP-Sepharose [1]; [3]): 4

Substance: Hypothetical protein DKFZp686N02209/immunoglobulin heavy constant gamma 1 (G1m marker) [IPI00384938]
- # of peptides in sample A# (BiP-Sepharose [1]; [4]): 1

Substance: Apolipoprotein E precursor/Apolipoprotein E/Apolipoprotein E3 (Fragment) [IPI00021842]
- # of peptides in sample A# (BiP-Sepharose [1]; [3]): 6

Continued, values first:

- # of peptides in sample A# (BiP-Sepharose [1]; [3]): 1
- # of peptides in sample A# (BiP-Sepharose [1]; [4]): 1
Substance: 25 kDa protein/immunoglobulin lambda chain/rheumatoid factor G9 light chain (lambda V3)/IGLC1 protein [IPI00154742]

- # of peptides in sample A# (BiP-Sepharose [1]; [5]): 1
Substance: Ig heavy chain V-III region TUR/Ig heavy chain V-III region TIL [IPI00382478]

- # of peptides in sample A# (BiP-Sepharose [1]; [4]): 1
- # of peptides in sample A# (BiP-Sepharose [1]; [5]): 2
- # of peptides in sample A# (BiP-Sepharose [1]; [7]): 1
Substance: IGLC1 protein (immunoglobulin lambda C1)/immunoglobulin lambda chain/immunoglobulin C1 segment protein (fragment) [IPI00719373]

- # of peptides in sample A# (BiP-Sepharose [1]; [5]): 9
Substance: 187 kDa protein/Complement component 3 [IPI00164623]

- # of peptides in sample A# (BiP-Sepharose [1]; [4]): 1
- # of peptides in sample A# (BiP-Sepharose [1]; [5]): 1
Substance: Hypothetical protein LOC651928/Immunoglobulin kappa variable 1-5/IGKV2-24 protein [IPI00440577]

- # of peptides in sample A# (BiP-Sepharose [1]; [3]): 1
Substance: IGLC2 protein (immunoglobulin lambda C2)/Immunoglobulin lambda [IPI00555945]

- # of peptides in sample A# (BiP-Sepharose [1]; [7]): 6
Substance: 26 kDa protein/Immunoglobulin kappa variable 1-5 [IPI00430820]

- # of peptides in sample A# (BiP-Sepharose [1]; [5]): 2
Substance: Phosphatase and actin regulator 4 isoform 1/Hypothetical protein DKFZp686L07205 [IPI00217851]

- # of peptides in sample A# (BiP-Sepharose [1]; [5]): 2
Substance: Ig kappa chain V-I region WEA/Similar to Ig kappa chain V-I region HK102 precursor/Ig kappa chain V-I region AU [IPI00003111]

- Specific binding to BiP-Sepharose from normal pooled plasma (BiP-Sepharose [1]; [8]): specifically bound
- Specific binding to BiP-Sepharose from control serum (BiP-Sepharose [1]): specifically bound
Substance: (sero)transferrin [IPI00022463]

- # of peptides in sample A# (BiP-Sepharose [1]; [7]): 2
Substance: Ig heavy chain V-III region CAM [IPI00382482]

- # of peptides in sample A# (BiP-Sepharose [1]; [3]): 1
Substance: Hypothetical protein [IPI00807428]

- # of peptides in sample A# (BiP-Sepharose [1]; [4]): 1
- # of peptides in sample A# (BiP-Sepharose [1]; [5]): 2
Substance: Isoform 1 of Plectin-1/Plectin 1 (intermediate filament binding protein 500 kDa, Hemidesmosomal protein 1/HD1) [IPI00014898]

- # of peptides in sample A# (BiP-Sepharose [1]; [5]): 5
Substance: Immunoglobulin J chain, Immunoglobulin J polypeptide, linker protein for immunoglobulin alpha and mu polypeptides [IPI00178926]

- # of peptides in sample A# (BiP-Sepharose [1]; [3]): 8
- # of peptides in sample A# (BiP-Sepharose [1]; [5]): 10
Substance: Immunoglobulin lambda variable 3-25/V2-17 protein (Fragment) [IPI00550162]

- Specific binding to BiP-Sepharose from normal pooled plasma (BiP-Sepharose [1]; [8]): specifically bound
- Specific binding to BiP-Sepharose from normal pooled plasma (BiP-Sepharose [1]; [6]): specifically bound
Substance: Alpha-2-macroglobulin [IPI00478003]

- # of peptides in sample A# (BiP-Sepharose [1]; [4]): 8
Substance: 25 kDa protein/Immunoglobulin lambda locus [IPI00747752]

- # of peptides in sample A# (BiP-Sepharose [1]; [5]): 1
Substance: Alpha-1-antitrypsin precursor/Serpin peptidase inhibitor, clade A (alpha-1 antiproteinase, antitrypsin), member 1 [IPI00553177]

- Specific binding to BiP-Sepharose from normal pooled plasma (BiP-Sepharose [1]; [8]): specifically bound
- Specific binding to BiP-Sepharose from normal pooled plasma (BiP-Sepharose [1]; [6]): specifically bound
- Specific binding to BiP-Sepharose from control serum (BiP-Sepharose [1]): specifically bound
Substance: haptoglobin [IPI00431645]

- # of peptides in sample A# (BiP-Sepharose [1]; [3]): 1
- # of peptides in sample A# (BiP-Sepharose [1]; [4]): 1
Substance: 26 kDa protein/immunoglobulin kappa variable 1-5 [IPI00738024]

- # of peptides in sample A# (BiP-Sepharose [1]; [5]): 4
Substance: Full-length cDNA clone CS0DL004YM19 of B cells (Ramos cell line) of Homo sapiens (Fragment)/Unnamed protein product [IPI00328493]

- # of peptides in sample A# (BiP-Sepharose [1]; [3]): 1
Substance: Hypothetical protein/immunoglobulin lambda locus/immunoglobulin lambda chain C regions (1/2/3)/immunoglobulin lambda variable V2-14/Ig lambda C3 protein (C2 segment protein, C3 segment protein)/Hypothetical protein DKFZp667J0B10 (Fragment) [IPI00760678]

- # of peptides in sample A# (BiP-Sepharose [1]; [5]): 7
- Specific binding to BiP-Sepharose from normal pooled plasma (BiP-Sepharose [1]; [6]): specifically bound
Substance: Complement component 4 binding protein, alpha, C4b-binding protein alpha chain precursor (C4bp) (Proline-rich protein/PRP) [IPI00021727]
